Laboratory results reported in PMC2993637.

Tests used:
[1] = target: MLL transactivation domain (Homo sapiens) (UniProt Q03164); conditions: cited from earlier work
[2] = target: KIX domain (residues 586-672) of mouse CBP, wild type (mouse) (UniProt P45481); assay: ITC
[3] = target: KIX domain (residues 586-672) of mouse CBP, L628A (mouse) (UniProt P45481); assay: NMR titration
[4] = target: KIX domain (residues 586-672) of mouse CBP, wild type (mouse) (UniProt P45481); assay: NMR titration

Kd [2] [nM] | Kd1 (primary site, two-site model) [3] [µM] | Kd2 (secondary site, two-site model) [3] [mM] | percent of KIX in the MLL-bound form (1:2 KIX:MLL) [3] [%] | Kd2 (secondary site, two-site model) [4] [µM] | percent of KIX in the MLL-bound form (1:1 KIX:MLL) [4] [%] | Substance | Kd [1] [nM]
 |  |  |  |  |  | CBP KIX (from UniProt P45481) | 2800
2100 | 220 | 1.63 | 74 | 920 | 94 | Human MLL transactivation domain (2842-2469 as printed) (domain or fragment) | 
